T1: BMV 1a protein, carboxy-terminal flag-tagged version (Brome mosaic virus, UniProt P03588 1-961)
T1 sequence (looked up): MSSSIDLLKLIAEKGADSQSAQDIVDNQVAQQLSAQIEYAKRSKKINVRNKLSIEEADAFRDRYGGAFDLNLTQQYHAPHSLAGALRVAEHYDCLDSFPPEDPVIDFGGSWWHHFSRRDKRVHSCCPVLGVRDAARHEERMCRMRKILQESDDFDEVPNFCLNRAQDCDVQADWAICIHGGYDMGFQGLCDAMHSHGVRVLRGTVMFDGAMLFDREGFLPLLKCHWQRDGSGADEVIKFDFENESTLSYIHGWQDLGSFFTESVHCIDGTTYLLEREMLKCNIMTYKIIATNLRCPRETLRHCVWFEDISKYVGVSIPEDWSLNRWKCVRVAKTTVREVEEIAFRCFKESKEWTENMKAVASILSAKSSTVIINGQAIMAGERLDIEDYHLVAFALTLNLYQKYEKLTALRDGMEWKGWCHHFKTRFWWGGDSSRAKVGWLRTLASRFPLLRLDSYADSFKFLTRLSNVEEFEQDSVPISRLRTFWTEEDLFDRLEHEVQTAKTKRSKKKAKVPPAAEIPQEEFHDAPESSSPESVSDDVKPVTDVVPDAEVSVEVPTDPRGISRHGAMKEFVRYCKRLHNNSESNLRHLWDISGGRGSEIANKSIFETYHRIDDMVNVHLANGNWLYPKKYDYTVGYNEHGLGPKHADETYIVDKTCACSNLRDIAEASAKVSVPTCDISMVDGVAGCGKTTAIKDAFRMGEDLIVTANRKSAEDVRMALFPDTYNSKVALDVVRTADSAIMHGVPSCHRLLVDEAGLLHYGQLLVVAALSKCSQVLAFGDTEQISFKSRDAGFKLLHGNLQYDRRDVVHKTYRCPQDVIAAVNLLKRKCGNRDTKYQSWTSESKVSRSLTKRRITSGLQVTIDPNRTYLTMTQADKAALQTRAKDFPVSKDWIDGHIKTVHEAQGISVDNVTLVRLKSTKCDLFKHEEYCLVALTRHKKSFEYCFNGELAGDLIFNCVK


Tests used:
[1] = target: T1, BMV 1a protein, carboxy-terminal …; assay: co-IP
[2] = target: T1, BMV 1a protein, carboxy-terminal …; assay: co-IP; remark: listed apart in the source

| Binder | fold enrichment compared with “Flag only” control [1] | fold enrichment compared with “Flag only” controls [2] |
| --- | --- | --- |
| Lsm1 (natural protein, S. cerevisiae (endogenous in YPH500), UniProt P47017 1-172, looked up) MSANSKDRNQSNQDAKRQQQNFPKKISEGEADLYLDQYNFTTTAAIVSSVDRKIFVLLRDGRMLFGVLRTFDQYANLILQDCVERIYFSEENKYAEEDRGIFMIRGENVVMLGEVDIDKEDQPLEAMERIPFKEAWLTKQKNDEKRFKEETHKGKKMARHGIVYDFHKSDMY | 2 fold | 7 fold |
| Pat1 (natural protein, S. cerevisiae (endogenous in YPH500), UniProt P25644 1-796, looked up) MSFFGLENSGNARDGPLDFEESYKGYGEHELEENDYLNDETFGDNVQVGTDFDFGNPHSSGSSGNAIGGNGVGATARSYVAATAEGISGPRTDGTAAAGPLDLKPMESLWSTAPPPAMAPSPQSTMAPAPAPQQMAPLQPILSMQDLERQQRQMQQQFMNFHAMGHPQGLPQGPPQQQFPMQPASGQPGPSQFAPPPPPPGVNVNMNQMPMGPVQVPVQASPSPIGMSNTPSPGPVVGATKMPLQSGRRSKRDLSPEEQRRLQIRHAKVEKILKYSGLMTPRDKDFITRYQLSQIVTEDPYNEDFYFQVYKIIQRGGITSESNKGLIARAYLEHSGHRLGGRYKRTDIALQRMQSQVEKAVTVAKERPSKLKDQQAAAGNSSQDNKQANTVLGKISSTLNSKNPRRQLQIPRQQPSDPDALKDVTDSLTNVDLASSGSSSTGSSAAAVASKQRRRSSYAFNNGNGATNLNKSGGKKFILELIETVYEEILDLEANLRNGQQTDSTAMWEALHIDDSSYDVNPFISMLSFDKGIKIMPRIFNFLDKQQKLKILQKIFNELSHLQIIILSSYKTTPKPTLTQLKKVDLFQMIILKIIVSFLSNNSNFIEIMGLLLQLIRNNNVSFLTTSKIGLNLITILISRAALIKQDSSRSNILSSPEISTWNEIYDKLFTSLESKIQLIFPPREYNDHIMRLQNDKFMDEAYIWQFLASLALSGKLNHQRIIIDEVRDEIFATINEAETLQKKEKELSVLPQRSQELDTELKSIIYNKEKLYQDLNLFLNVMGLVYRDGEISELK | 4.5 fold | 25 fold |

— article PMC4509936 (RNA, 2015)
